These results are taken from paper PMC4344528, “Structural role of the flanking DNA in mariner transposon excision” (Nucleic Acids Research, 2015).

This data set deals with the molecule itself. Nature of the data set: crystal structure; pre-TS cleavage Mos1 paired-end complex: T216A/D249A transposase mixed equimolar with ds IR DNA substrate; hanging-drop vapour diffusion, 100 mM ammonium acetate, 20 mM MgCl2, 50 mM HEPES pH 7.0, 5% PEG 8000; 3.09 Å, C222(1).

B1: T216A/D249A Mos1 transposase double mutant (enzyme)
chain: MSSFVPNKEQTRTVLIFCFHLKKTAAESHRMLVEAFGEQVPTVKKCERWFQRFKSGDFDVDDKEHGKPPKRYEDAELQALLDEDDAQTQKQLAEQLEVSQQAVSNRLREMGKIQKVGRWVPHELNERQMERRKNTCEILLSRYKRKSFLHRIVTGDEKWIFFVSPKRKKSYVDPGQPATSTARPNRFGKKTMLCVWWDQSGVIYYELLKRGETVNAARYQQQLINLNRALQRKRPEYQKRQHRVIFLHANAPSHTARAVRDTLETLNWEVLPHAAYSPDLAPSDYHLFASMGHALAEQRFDSYESVKKWLDEWFAAKDDEFYWRGIHKLPERWEKCVASDGKY
notes: mariner Mos1 transposase, from the codon-optimized Mos1 gene; T216A allows soluble expression in E. coli, D249A is the active site mutation; Crystallised as a paired-end complex (PEC): a transposase dimer with two DNA substrates (33 nt transferred strand, 25 nt non-transferred strand); PDB 3HOS is the post-cleavage PEC of the parent transposase, without D249A; also called T216A/D249A mutant …
By stoichiometry N is commonly meant the number of molecules, sites or subunits per partner or assembly. Consider B1, for which the “stoichiometry N” value was 2.
